How the values were obtained:
prio_bovin PRNP = prio_bovin PRNP (UniProt P10279)
prio_human PRNP = prio_human PRNP (UniProt P04156)

Row | Substance | effect of a mutation on the interaction (prio_bovin PRNP) | effect of a mutation on the interaction (prio_human PRNP)
1 | Major prion protein (Homo sapiens) (from UniProt P04156) M129V | decreasing interaction | 
2 | Major prion protein (Bos taurus (Bovine)) (from UniProt P10279) L149I |  | decreasing interaction

— IntAct's records for PubMed 21920025
